Data set [1] addresses human serum albumin (HSA) (Homo sapiens) (UniProt P02768). The data set is described as follows: flow cytometry on HSA-coated beads. The following applies: HSA beads: DPBS + 5 mM Mg2+, room temperature, 1 h, beads blocked with BSA/yeast tRNA, cells: DPBS, 4.5 g/L glucose, 5 mM MgCl2, 0.1 mg/ml yeast tRNA, 1 mg/ml …. On the technique in general: A flow cytometer gives signals particle by particle.

The target of a further data set is T1, PTK7 (on HCT116 cells) (UniProt Q13308).
T1 sequence: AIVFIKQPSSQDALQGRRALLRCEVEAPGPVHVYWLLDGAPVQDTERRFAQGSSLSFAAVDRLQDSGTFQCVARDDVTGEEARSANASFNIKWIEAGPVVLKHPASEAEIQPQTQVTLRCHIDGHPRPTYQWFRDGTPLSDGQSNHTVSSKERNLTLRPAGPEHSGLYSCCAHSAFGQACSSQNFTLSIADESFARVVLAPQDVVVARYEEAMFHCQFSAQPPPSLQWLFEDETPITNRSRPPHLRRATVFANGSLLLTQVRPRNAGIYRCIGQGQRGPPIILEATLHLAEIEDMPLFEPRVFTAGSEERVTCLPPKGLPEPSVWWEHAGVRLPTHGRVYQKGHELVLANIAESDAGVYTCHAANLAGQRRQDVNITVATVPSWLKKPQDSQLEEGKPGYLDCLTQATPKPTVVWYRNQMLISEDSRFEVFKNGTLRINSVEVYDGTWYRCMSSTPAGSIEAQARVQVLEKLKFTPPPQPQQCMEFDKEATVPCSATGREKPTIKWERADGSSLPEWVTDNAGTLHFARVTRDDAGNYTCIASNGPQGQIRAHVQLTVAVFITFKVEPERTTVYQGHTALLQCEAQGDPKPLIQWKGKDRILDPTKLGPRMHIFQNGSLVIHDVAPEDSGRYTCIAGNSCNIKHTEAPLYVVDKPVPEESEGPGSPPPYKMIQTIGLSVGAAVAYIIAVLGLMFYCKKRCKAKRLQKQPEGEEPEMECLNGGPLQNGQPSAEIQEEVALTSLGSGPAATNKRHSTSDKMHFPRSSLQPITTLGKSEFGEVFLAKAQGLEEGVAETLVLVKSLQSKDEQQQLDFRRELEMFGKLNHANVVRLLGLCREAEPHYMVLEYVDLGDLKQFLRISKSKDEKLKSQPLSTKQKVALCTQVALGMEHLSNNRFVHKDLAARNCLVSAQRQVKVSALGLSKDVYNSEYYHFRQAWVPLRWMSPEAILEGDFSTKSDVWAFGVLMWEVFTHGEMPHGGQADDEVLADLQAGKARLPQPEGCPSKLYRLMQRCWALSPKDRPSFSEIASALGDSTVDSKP
The data set is described as follows: flow cytometry on HCT116 cells. The settings on record: live cells, PTK7 inferred, HSA beads: DPBS + 5 mM Mg2+, room temperature, 1 h, beads blocked with BSA/yeast tRNA, 4.5 g/L glucose, 5 mM MgCl2, 0.1 mg/ml yeast tRNA, 1 mg/ml ….

The next data set concerns the target T2, EpCAM (on HCT116 cells) (UniProt P16422).
T2 sequence: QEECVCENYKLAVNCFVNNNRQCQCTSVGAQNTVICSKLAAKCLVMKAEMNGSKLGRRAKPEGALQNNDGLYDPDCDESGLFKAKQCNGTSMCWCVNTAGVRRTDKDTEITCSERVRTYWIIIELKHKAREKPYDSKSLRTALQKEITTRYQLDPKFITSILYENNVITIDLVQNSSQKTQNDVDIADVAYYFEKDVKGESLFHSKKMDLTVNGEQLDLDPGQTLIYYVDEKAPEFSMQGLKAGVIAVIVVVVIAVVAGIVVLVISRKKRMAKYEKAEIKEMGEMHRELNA
The data set is described as follows: flow cytometry on HCT116 cells. The following applies: live cells, EpCAM inferred, HSA beads: DPBS + 5 mM Mg2+, room temperature, 1 h, beads blocked with BSA/yeast tRNA, 4.5 g/L glucose, 5 mM MgCl2, 0.1 mg/ml yeast tRNA, 1 mg/ml ….

The target of data set [2] is human serum albumin (HSA) (Homo sapiens) (UniProt P02768). The data set is described as follows: flow cytometry. The following applies: N = artificial base F; HSA beads: DPBS + 5 mM Mg2+, room temperature, 1 h, beads blocked with BSA/yeast tRNA; cells: DPBS, 4.5 g/L glucose, 5 mM MgCl2, 0.1 mg/ml yeast tRNA, 1 mg/ml ….

Regarding “NNATCTAACTGCTGCGCCGCCGGGAAAATACTGTACGGTTAGANN [Sgc8-F20]”, the equilibrium dissociation constant (Kd) in data set [1] (N = artificial base F) came out at 403 nM. As for “NNATCTAACTGCTGCGCCGCCGGGANANTANTGTACGGTTAGANN [Sgc8-F23]”, the Kd stood at 17.1 nM with PTK7 (on HCT116 cells) (N = artificial base F (3,5-bis(trifluoromethyl)benzene), 7 F) and 194 nM in data set [1] (5 mM Mg2+, in the SYL3C section printed as 191.8 nM, N = artificial base F (3,5-bis(trifluoromethyl)benzene), 7 F). With “NNCACTACAGAGGTTGCGTCTGTCCCACGTTGTCATGGGGGGTTGGCCTGNN [SYL3C-F20]”, the Kd in the data set with EpCAM (on HCT116 cells) (N = artificial base F) came to 369 nM; in data set [2], 1090 nM.

With “ATCTAACTGCTGCGCCGCCGGGAAAATACTGTACGGTTAGA [Sgc8]”, in the data set with PTK7 (on HCT116 cells), the Kd turned out to be 3.2 nM.

As to “CACTACAGAGGTTGCGTCTGTCCCACGTTGTCATGGGGGGTTGGCCTG [SYL3C]”, in the data set with EpCAM (on HCT116 cells), the Kd was 321 nM.

The term Kd denotes the constant that tells how readily two partners part at equilibrium.

The values above are taken from article PMC8989545.
